Source: the supplement of paper PMC12042874
± gives the uncertainty stated by the source.

Test: amyloid nucleation score (Sup35N fusion, yeast selection) (log enrichment); library NNK1; higher = more nucleation; inactive = no reads after selection
Procedure, shortened: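 Sup35N was fused to peptides of 20 random codons and expressed in psi-negative yeast, which were induced with 100 μM copper sulfate for 24 hours and then grown on medium lacking adenine and uracil for 7 days at 30°C. Plasmid inserts from input and output were sequenced on Illumina. The nucleation score is the DiMSum log enrichment of output over input reads, centred on the mode score of non-aggregating sequences. Sequences with under 100 input reads were left out, and random libraries had three technical output replicates.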

Row | Substance | amyloid nucleation score
1 | FWIDLGMTLGTCRSFLSLRS | 0.217 ± 0.6
2 | VSEIFFWFKSWRRRLRLRMG | inactive
3 | GSRSQCAPSQFLAAGTHNKF | -1.17 ± 0.84
4 | SCKPGPIVSLDFVFVVYPWE | 0.002 ± 0.9
5 | IGENCRWRMSSRCGFNGNDT | -0.37 ± 0.43
6 | FMFYTYHVNSYFSILCSVSN | 0.655 ± 0.46
7 | SNLRMLNMASTSPR | -0.368 ± 0.34
8 | LLFSPIFLDSGPHTLWLYMF | 0.491 ± 0.87
9 | RLAWPRKSSSCN | 0.774 ± 0.45
10 | RPSTLCFTIIRVYKLSRSPT | 2.65 ± 0.074
11 | NHYGSVAGLPPNNHWVSFCV | -0.373 ± 0.99
12 | VFPALLNISRLISKTQCSQV | -0.978 ± 0.99
13 | ASSVSMFFYIWFLDAHVGYL | 0.364 ± 0.33
14 | SVVNDFVYRL | -0.588 ± 0.86
15 | IAYKPLTWSSWEGSISIIRV | 0.149 ± 0.4
16 | WFMVVSRNMFCV | 0.456 ± 1.1
17 | LFSYMYLEVDMSESMIRYL | 1.02 ± 0.31
18 | GLIMYPRGYMCKSIT | 0.813 ± 0.43
19 | YHWVMTASVCSPGELNYRSN | 0.363 ± 0.78
20 | SLVLDGVSTPPIDYLNLVLV | -1.26 ± 0.76
21 | PEGWYLTNCRAGRFSSR | -0.222 ± 0.39
22 | LFSCWQSGRVNKYYVDGSMG | -0.206 ± 0.97
23 | FFPTEYHALENLLHADVRVK | -0.682 ± 0.36
24 | TWMLVEVVNCCLYTHVFYR | 4.27 ± 0.061
25 | IAVFWCFKMNWALMMRTKDM | 0.13 ± 0.38

Row | Substance | amyloid nucleation score
26 | SIRWVIHDRVSRVYDVLRCG | 0.944 ± 0.54
27 | NRFYYKARCRQVGHCT | 0.743 ± 0.46
28 | KNSLTTKVLLCTLAATL | 0.603 ± 0.73
29 | LPGFWPFMSDTPLGHQIVA | -1.07 ± 1.6
30 | VGLFVFSMSLGLAD | -1.55 ± 0.51
31 | WAYYCYP | -2.01 ± 2.4
32 | VNGQYMRSHWFGDTTLLPIC | -0.316 ± 0.24
33 | QLKGSSWYYENRVGRSGRGV | 0.698 ± 0.49
34 | SVFSLVYGKN | 0.685 ± 0.81
35 | TSLVVYYTSWV | -1.55 ± 2.4
36 | AFDLTEVQFLRVVKS | -0.259 ± 0.44
37 | TVAGLT | -0.224 ± 0.71
38 | LFIVPRRGARRYRVVITKSV | 0.003 ± 0.46
39 | VSLHSRINTVSPRKGLGSYS | 0.275 ± 0.71
40 | CVTDIRAWFKVGLCNSDVLQ | 3.89 ± 0.096
41 | AGRRKSRSAVQREP | 0.528 ± 0.88
42 | MMDVV | -0.756 ± 0.58
43 | FEGALRLTIRSQKD | 0.574 ± 0.57
44 | SPNCM | -0.358 ± 1.4
45 | IVRNGQATWSWILRGPSWVG | -1.32 ± 0.48
46 | SGVVTCVVFL | 5.38 ± 0.066
47 | PFILFQWPTLHRDYVHAQVL | 0.686 ± 1.1
48 | GKENSVTGHRGYSDVAVGMQ | 0.286 ± 1.4
49 | VLRNDTMGAGANF | -1.3 ± 0.39
50 | EICSSESAVQKHNSPWGSDY | -1.71 ± 2.7

Row | Substance | amyloid nucleation score
51 | LYLYM | 0.959 ± 0.34
52 | IVEGVPGTRPHVLAKCSDEC | 0.232 ± 0.3
53 | IDMGSGTNFSTCKCATLIMI | inactive
54 | YGPGWTRWLENLSLYSMYEP | -0.102 ± 1.5
55 | WEDSGVIFLMVCCSVYLGNL | 2.66 ± 0.12
56 | VSGAIRRDYIFDVIGRPTV | inactive
57 | YQRSTWSSWNQVRYYHEFQR | 1.59 ± 0.3
58 | GNCPNQIGAYVVKIIRMPAL | -0.311 ± 0.55
59 | FISCCARIFTTCGIAD | 1.19 ± 0.14
60 | ALSDFGDKLSPPEDLRLEHW | 1.07 ± 0.62
61 | SSITVITVATQVEYNTVHDF | 1.37 ± 0.45
62 | GTGHVFQCCRMTLLQSSLDG | -0.832 ± 0.88
63 | AWYMPIWFLAYFL | 1.24 ± 0.14
64 | GGCRIYLSSRM | -0.583 ± 0.46
65 | YFSKICRSLFDM | 0.906 ± 1.1
66 | STRSLSCLFLNRTSHCLGTL | -0.721 ± 1.4
67 | PGFYGPLIGFMWRCSARERC | 0.673 ± 0.37
68 | KWSVSV | -0.32 ± 1.3
69 | FASRVCMRSNQKIPAWQLWS | -0.359 ± 0.29
70 | ESARCVRVTALSLWHRDQRS | 1.02 ± 0.8
71 | MWVYFVLCKKVAEGVCFIDT | 0.996 ± 0.61
72 | FTFEFVNHMASVYRSLMYER | -0.356 ± 1.1
73 | RAKLFHWLNWR | 0.282 ± 0.67
74 | MYFVRVSSDA | 0.351 ± 0.54
75 | LWLWHELHAIYMGMRGVSVL | inactive

Row | Substance | amyloid nucleation score
76 | VLNYHLH | -0.569 ± 0.79
77 | TVVNSVGYYAPKLPSACLGN | 0.638 ± 0.31
78 | NSCTGSGGCSWEDKGNWCVK | 0.183 ± 0.28
79 | FHMPYLCNAKWRECLGFSAH | 0.279 ± 1.4
80 | RSYSTCFPLIVLSK | 0.303 ± 0.28
81 | GLVIELNPFKSLLSSPWVFF | 0.335 ± 0.71
82 | VWTYNLI | inactive
83 | IGDKYGYCKYGRYADGQVIS | inactive
84 | LWTFGDRSVWLDDSMRWVPR | -0.145 ± 1.1
85 | KSSYLFMTSWPYWVRGMSYA | 0.01 ± 0.46
86 | YMGYCYNTTKVCKLRQIYAG | 1.71 ± 0.54
87 | RSQVSSFTYSPSRATPKRRL | 0.508 ± 0.5
88 | ITYYVNFDFCQGSLARVWLC | 5.01 ± 0.059
89 | VARHGEGFNW | 0.446 ± 0.64
90 | SVDNMVGVTGSFGGARVILS | -0.237 ± 0.39
91 | GLPLNA | inactive
92 | LNRTRCLWL | 0.877 ± 0.58
93 | VNAMSLLILDAVLDKEQW | 0.921 ± 1
94 | HSCEPVMLVLNMNR | 8.159 ± 0.072
95 | FRLTLGIVVLLVGK | inactive
96 | IYDIEEDLCSVSVSGKESWV | -0.307 ± 0.47
97 | MLLWQRSGMQLLAGLSHRVR | -0.702 ± 0.99
98 | ANDFYVMYAEWKDCRNRVLF | 0.655 ± 0.66
99 | TLNVFDH | -0.421 ± 0.4
100 | DWGERRLSRFNGAYSVVTMV | 0.599 ± 0.6

Row | Substance | amyloid nucleation score
101 | FSYTDNSTRFVTFQLRNIPA | 0.598 ± 0.33
102 | RFSMFRQFRSDLGCFPIMVP | 0.254 ± 0.72
103 | NPSNKCLSEPWQDHLLGAWR | 0.758 ± 0.67
104 | RGHAFLFVLYTFQLKAYAS | -0.033 ± 0.3
105 | RLLASGFLSTRFR | 0.143 ± 0.86
106 | NFSRIKYYGSYEVFIFAGNY | 0.398 ± 0.79
107 | FALGCF | -0.079 ± 0.36
108 | DWPMELLASYMTPMLVTRV | inactive
109 | YMGLYWLDRRMICMQLLWTL | 2.37 ± 0.4
110 | SMLRNTNLNAIPKFTVSFVL | -0.021 ± 0.69
111 | INETLYRTFSRL | -0.471 ± 0.56
112 | MIRGLPQMMNWVP | 0.758 ± 0.38
113 | LMIRILMVAQNSVLTVFW | -0.324 ± 0.4
114 | QNQSFLINPWQGSKLVDPTA | 0.253 ± 0.53
115 | LNRSTDAFWNKIRTG | 1.01 ± 0.49
116 | GRVQL | 0.405 ± 0.48
117 | FIFHSIGRSKISYKS | -0.229 ± 0.59
118 | WDLLLWSVNRDRRV | 1.47 ± 0.55
119 | SNLLPLYP | 0.263 ± 1.1
120 | FYVANVACSCAFMLPITNVR | -0.461 ± 0.73
121 | PSKPLGIIRLVSNQFPPSHK | 0.123 ± 0.29
122 | QLSLGHNFLCYVMSMRVREV | inactive
123 | CHSINLGLNPFKYVNLPNGH | 2.38 ± 0.15
124 | FIWDAWLGRKVSESHTVFHS | 0.017 ± 0.21
125 | EGWPTSTLSLSRYALLGSPR | -0.486 ± 0.66

Row | Substance | amyloid nucleation score
126 | AISDFMGHS | -0.825 ± 1.1
127 | GRMLLM | -1.25 ± 1.1
128 | IAGRRPALYRVWNSRCSLLN | 0.014 ± 0.49
129 | VSPGVFMGVLLMALKFFQAK | -0.303 ± 0.71
130 | MNALGSTYWDQQSAQQSMWS | 4.92 ± 0.068
131 | VILTYGTVRY | 0.38 ± 0.59
132 | VHFQYFLMLKLAQFVVVWNK | 0.669 ± 0.84
133 | PQVKTFGVVFVGGMCE | 0.216 ± 0.41
134 | FEGNQDIYMVRTWKDKMRLV | -0.107 ± 0.45
135 | SLMFTPEYCVED | 1.41 ± 0.69
136 | GGLGRYWTTHE | 0.436 ± 0.83
137 | IFRMAPKQCPSLWVASPHWI | 0.743 ± 0.55
138 | SDWGGVMVDRGSGW | 1.36 ± 0.47
139 | ERPTNSYGSREILNSYIINF | 5.05 ± 0.084
140 | VNRGVVVRITWIAKHYCMSE | 0.26 ± 0.38
141 | RGILLSPSLLVYRLTT | -0.096 ± 1.2
142 | MMAFDRRCLGFPMNVGYD | 1.07 ± 0.46
143 | QVARLLSHAMWLVGKTL | inactive
144 | TSYPSYVDFW | 0.209 ± 0.58
145 | NSEKLPMHPRGHAGQAWVQS | 0.153 ± 0.45
146 | MPGSTLLSAKMTSLGGTALW | 0.392 ± 0.4
147 | IFATTIFLLGTRTKLMSG | 0.971 ± 0.65
148 | VSGVYLRFRASCRSY | -0.105 ± 0.58
149 | SVLCELRV | -0.182 ± 0.36
150 | WISKWHYGAQSSARSKYARI | 0.864 ± 0.47

Row | Substance | amyloid nucleation score
151 | FCHYTVLYDSPTLLVRVTWA | -0.681 ± 0.85
152 | FLYWLVDKLG | 0.37 ± 0.51
153 | YKAKGRNAVS | -0.689 ± 1.6
154 | LVWILHVSSVNNHVDWGMLE | -1.64 ± 2.4
155 | RFETRTL | 0.93 ± 0.31
156 | CLILG | -1.31 ± 0.52
157 | EDKYFA | 0.323 ± 0.69
158 | FGKSYRRFFARTKFGKAGGP | -1.29 ± 1.8
159 | SFSLMGRFRSFMYACIVAAC | -0.936 ± 0.57
160 | HSDSNWIVDVLHSLYDKWLV | 0.913 ± 0.5
161 | VYKCSQVDRVCKMAWVGLKS | 0.205 ± 0.34
162 | KNTCKQMV | 0.242 ± 0.57
163 | WSRSLVLGPLEMAHTKAVQN | -0.658 ± 1.4
164 | ADSFSI | -0.118 ± 0.44
165 | FMRDCSYI | 0.687 ± 0.79
166 | QIFVWAFPPSGVSGHVWSRD | 6.497 ± 0.049
167 | RLVIRSGTNAGMVGRSWGGC | -0.151 ± 0.3
168 | VAFMDLTMRLDWGNFSNR | 4.34 ± 0.056
169 | MFFGWLFHYLLSSTYMFVSL | -0.266 ± 0.72
170 | LNFFVPA | -1.38 ± 2.4
171 | NLPSSKKVLPCFFLRSIYGC | 0.9 ± 0.4
172 | SRSRRANYGLCDIRYYNSFE | 0.862 ± 0.43
173 | SFNVKVAHGLIRFSPDICYQ | 4.47 ± 0.13
